The data set deals with the molecule itself. Put plainly: BLI; […] (PBS, 0.01% BSA, 0.002% Tween-20); […]. A general note: Biolayer interferometry detects binding as a change in optical thickness at a sensor tip.

B1: recombinant N1-165-domain of wild-type (wt) matrix protein 1 (M1), influenza A virus A/WSN/33 (domain or fragment)
chain: MSLLTEVETYVLSIVPSGPLKAEIAQRLEDVFAGKNTDLEVLMEWLKTRPILSPLTKGILGFVFTLTVPSERGLQRRRFVQNALNGNGDPNNMDKAVKLYRKLKREITFHGAKEIALSYSAGALASCMGLIYNRMGAVTTEVAFGLVCATCEQIADSQHRSHRQM
As for B1, the binding result is “binds”.

(Values after publication PMC5750462 (Emerging Microbes & Infections, 2017).)
